Source: paper doi:10.1101/2020.08.02.233007 (bioRxiv, 2020)
Where a chain is given by its changes, count along the chain named. Numbers in names are those of the source.

What was measured:
[1] = target: T1, recombinant full-length UVR8^W285A from Sf9 cells (Arabidopsis), Q9FN03; experiment: SEC; conditions: remark: other sources report otherwise
T1 chain: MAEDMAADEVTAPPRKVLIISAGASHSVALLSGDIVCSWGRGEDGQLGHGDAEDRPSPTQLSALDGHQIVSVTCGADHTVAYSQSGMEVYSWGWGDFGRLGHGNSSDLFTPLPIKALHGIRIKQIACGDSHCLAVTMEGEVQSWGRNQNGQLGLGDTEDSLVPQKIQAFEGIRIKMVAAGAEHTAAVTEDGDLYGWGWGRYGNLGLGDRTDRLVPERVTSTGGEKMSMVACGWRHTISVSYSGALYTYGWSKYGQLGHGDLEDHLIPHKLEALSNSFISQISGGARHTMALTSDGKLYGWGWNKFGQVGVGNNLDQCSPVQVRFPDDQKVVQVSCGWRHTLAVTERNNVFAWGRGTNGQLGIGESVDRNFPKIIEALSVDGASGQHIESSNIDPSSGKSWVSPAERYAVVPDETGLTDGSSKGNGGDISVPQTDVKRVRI

[2] = target: T2, UVR8^W285A overexpressed in uvr8-7/Pro35S:UVR8^W285A seedlings (Arabidopsis thaliana), Q9FN03; experiment: cross-linking; conditions: remark: other sources report otherwise
T2 chain: T1 chain

[3] = target: T3, recombinant full-length UVR8 (wild type) from Sf9 cells (Arabidopsis, UniProt Q9FN03 1-440); experiment: grating-coupled interferometry
T3 sequence: T1 chain with A285W

[4] = target: T4, recombinant full-length UVR8^W285A from Sf9 cells (Arabidopsis, UniProt Q9FN03 1-440, W285A); experiment: grating-coupled interferometry
T4 sequence: T1 chain

[5] = target: the molecule itself; experiment: cross-linking

B1: recombinant full-length UVR8^W285A from Sf9 cells, Q9FN03 1-440 (natural protein)
chain: T1 chain
[1]
  stoichiometry N: 2

B2: UVR8^W285A overexpressed in uvr8-7/Pro35S:UVR8^W285A seedlings, Q9FN03 1-440 (natural protein)
chain: T1 chain
[2]
  stoichiometry N: 2

B3: COP1 WD40 domain (COP1^349–675), recombinant from Sf9 cells (domain or fragment)
chain: TFTRYSRLRVIAEIRHGDIFHSANIVSSIEFDRDDELFATAGVSRCIKVFDFSSVVNEPADMQCPIVEMSTRSKLSCLSWNKHEKNHIASSDYEGIVTVWDVTTRQSLMEYEEHEKRAWSVDFSRTEPSMLVSGSDDCKVKVWCTRQEASVINIDMKANICCVKYNPGSSNYIAVGSADHHIHYYDLRNISQPLHVFSGHKKAVSYVKFLSNNELASASTDSTLRLWDVKDNLPVRTFRGHTNEKNFVGLTVNSEYLACGSETNEVYVYHKEITRPVTSHRFGSPDMDDAEEEAGSYFISAVCWKSDSPTMLTANSQGTIKVLVLAA
[3]
  binding result: binds
[4]
  binding result: binds

B4: UVR8^W285F overexpressed in uvr8-7/Pro35S:UVR8^W285F seedlings (natural protein)
chain: T1 chain with A285F
[5]
  stoichiometry N: 2
